The EC50 is the concentration that produces a half-maximal response. A high value points to a less potent agent. One may read the Kd as the concentration at which binding is half-saturated. A high value points to a looser complex. What is called koff is the rate constant with which the complex falls apart. A lower koff goes with a long-lived complex. For orientation: kon means a measure of how fast the partners come together. Higher therefore signals fast association. By IC50 is commonly meant the point on the concentration scale where inhibition reaches its midpoint. Low readings indicate greater potency, high ones weaker potency.

B1: E9.4 (antibody, V domains shown)
VH: EVQLQESGPGLVKPSETLSLTCTVSGGSISSSSYYWGWIRQPPGKGLEWIGDIYYTGSTYYNPSLKSRVTISVDTSKNQFSLKLSSVTAADTAVYYCARYDVSLGGSSDHWGQGTLVTVSS
VL: SYELTQPPSVSVSPGQTASITCSGQRLGDKYASWYQQKPGQSPVLVIYEDSKRPSGIPERFSGSNSGDTATLTISGTQPMDEADYYCQAWDRDTGVFGYGTKVTVL
notes: also called DLL4-E9-4 hIgG1/L
B2: E9.12B (antibody, V domains shown)
VH: B1 VH with S33N, Y100E, D101A, L104F, S107G, S108A, H110S
VL: SYELTQPPSVSVSPGQTASITCSGDGLGDKYVSWYQQKPGQSPVLVIYEDSTRPSGIPERFSGSNSGDTATLTISGTQPMDEADYYCQAWDSESGVFGSGTKVT
B3: E9.1F (antibody, V domains shown)
VH: B1 VH with S32G, Y54N, T56I, Y100E, D101A, L104F, S107G, S108A, H110S
VL: B1 VL with Q25D, A32V, K52Q, P79A, R92M, D93E, T94A, Y99S
notes: also called E9.IF
B4: E9.22 (antibody, V domains shown)
VH: B1 VH with S31N, S33R, Y35H, S67G, Y100E, S103I, G105R, S107G, H110Y
VL: B1 VL
notes: also called DLL4-E9-22 hIgG1/L
B5: E9.5E (antibody, V domains shown)
VH: B1 VH with Y54N, T56I, Y100E, D101S, S103P, S107G, S108A, H110E
VL: B2 VL with G26M, T52Q, S94T
B6: E9.66 (antibody, V domains shown)
VH: B1 VH with Y100E, D101G, S103P, S107G, S108A, H110K
VL: B1 VL
notes: also called DLL4-E9-66 hIgG1/L
B7: E9.38 (antibody, V domains shown)
VH: B1 VH with Y100E, S103I, G105R, S107G, H110Y
VL: B1 VL with A32V, T94V, Y99S
notes: also called DLL4-E9-38 hIgG1/L
B8: E9.71(M) (antibody, human IgG1, V domains shown)
VH: B1 VH with Y100Q, D101A, V102L, S103A, L104M, S107G, H110K
VL: SYELTQPPSVSVSPGQTASITCSGQRLGDKYASWYQQKPGQSPVLVIYEDSKRPSGIPERFSGSNSGDTATLTISGTQPMDEADYYCQAWDRDTGVFGGGTKLTVLG
B9: E9.11 (antibody, V domains shown)
VH: B1 VH with Y100E, D101A, S103P, S107G, H110Y
VL: B1 VL
notes: also called DLL4-E9-11 hIgG1/L
B10: A10.L45 (antibody, V domains shown)
VH: EVQLVESGGGLVKSGGSLRLSCAASGFTFRSHWMSWVRQAPGKGLEWVAIISYDGSNKYSADSVKGRFTISRDNSKNTLYLQLNSLRAEDTAVYYCAKAGGGNVGFDIWGQGTMVTVSS
VL: SYELTQPPSVSVSPGQTASITCSADELGTQYVSWYQQKPGQSPVLVIYQDATRPSGIPERFSGSNSGNTATLTISGTQAMDEADYYCQAWDRSGVVFGGGTKLTVL
B11: A10.K42 (antibody, V domains shown)
VH: B10 VH with K13Q, S14P, R30Q, I50M, S56T, N57I, S60Y
VL: B10 VL with E26K, Q30K, T52K, A79T, Y86L, A89S, G94D
B12: A10.K30 (antibody, V domains shown)
VH: B10 VH with L11V, K13Q, S14P, R30G, S31N, I50D, Y53S, S56R, N57Y, S60Y
VL: B10 VL with E26K, Q30K, T52K, A79T, Y86L, A89S, G94D
B13: A10.L73 (antibody, V domains shown)
VH: B10 VH
VL: B10 VL with A24G, E26N, T29S, T52Q
B14: E9.65 (antibody, V domains shown)
VH: B1 VH with S30R, S31N, S33R, Y35H, S67G, Y100E, S103I, G105R, S107G, H110Y
VL: B1 VL
B15: E9.48 (antibody, V domains shown)
VH: B1 VH with S33G, Y54N, T56R, Y100E, S103I, G105R, S107G, H110Y
VL: B1 VL
notes: also called DLL4-E9-48 hIgG1/L
B16: E9.13 (antibody, V domains shown)
VH: B1 VH with Y100E, S103I, G105R, S107G, H110Y
VL: B1 VL with Q25D, R26T, A32V, K52E, R92S, D93E, Y99S
notes: also called DLL4-E9-13 hIgG1/L
B17: E9.18 (antibody, V domains shown)
VH: B1 VH with S33G, Y54N, T56A, Y100E, S103I, G105R, S107G, H110Y
VL: B1 VL
notes: also called DLL4-E9-18 hIgG1/L
B18: E9.14 (antibody, V domains shown)
VH: B1 VH with S31N, S33R, Y35H, P42S, A90E, Y100E, S103I, G105R, S107G, H110Y
VL: B1 VL
notes: also called DLL4-E9-14 hIgG1/L

Positions count from the first letter of the chain named.

T4 sequence (Q9JI71 27-532): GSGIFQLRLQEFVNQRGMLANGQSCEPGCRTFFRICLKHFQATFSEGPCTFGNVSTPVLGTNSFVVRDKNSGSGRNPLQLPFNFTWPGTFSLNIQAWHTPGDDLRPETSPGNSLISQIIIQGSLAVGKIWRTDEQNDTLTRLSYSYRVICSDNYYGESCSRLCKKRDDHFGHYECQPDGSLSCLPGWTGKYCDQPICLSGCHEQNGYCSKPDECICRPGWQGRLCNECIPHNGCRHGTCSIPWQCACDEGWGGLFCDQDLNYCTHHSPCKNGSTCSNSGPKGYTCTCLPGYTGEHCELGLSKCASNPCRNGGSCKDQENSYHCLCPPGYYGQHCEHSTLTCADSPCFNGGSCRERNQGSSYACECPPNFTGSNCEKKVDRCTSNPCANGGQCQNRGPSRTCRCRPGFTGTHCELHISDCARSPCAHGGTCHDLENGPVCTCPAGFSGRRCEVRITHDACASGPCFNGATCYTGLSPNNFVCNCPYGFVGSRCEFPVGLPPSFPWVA

In the first experiment the target is T1, mouse DLL4 on the cell surface (mouse, UniProt Q9JI71 27-686).
T1 construct: whole, on cells; also called HEK293-mDLL4; mDLL4-293G
T1 sequence (Q9JI71 27-686): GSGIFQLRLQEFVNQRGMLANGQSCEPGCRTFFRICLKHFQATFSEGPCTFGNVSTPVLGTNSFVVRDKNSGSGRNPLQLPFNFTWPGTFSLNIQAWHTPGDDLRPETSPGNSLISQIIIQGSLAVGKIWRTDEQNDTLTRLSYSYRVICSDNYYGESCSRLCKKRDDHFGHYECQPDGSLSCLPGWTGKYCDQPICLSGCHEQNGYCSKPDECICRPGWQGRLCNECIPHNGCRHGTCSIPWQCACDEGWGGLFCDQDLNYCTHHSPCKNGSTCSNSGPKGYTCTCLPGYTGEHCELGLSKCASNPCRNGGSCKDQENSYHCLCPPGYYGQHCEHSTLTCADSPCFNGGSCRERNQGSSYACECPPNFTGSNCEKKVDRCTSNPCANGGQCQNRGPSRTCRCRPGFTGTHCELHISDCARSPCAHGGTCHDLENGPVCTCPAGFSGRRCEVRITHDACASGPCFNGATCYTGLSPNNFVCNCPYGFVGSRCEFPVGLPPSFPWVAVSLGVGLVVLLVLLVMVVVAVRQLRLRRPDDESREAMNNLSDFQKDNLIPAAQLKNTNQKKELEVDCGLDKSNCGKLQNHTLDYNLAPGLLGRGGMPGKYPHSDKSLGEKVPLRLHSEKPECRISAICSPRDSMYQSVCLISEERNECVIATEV
Put plainly: FACS on DLL4 cells.
The molecule B1 displayed an EC50 of 0.63 nM.
On the same count and under the same terms, in the case of B2 it was 0.71 nM.
As to B3, a half-maximal response (EC50) required 0.37 nM.
Turning to B4, the midpoint of the response, the EC50, lay at 37.4 nM.
Still for that read-out and setting: for B5 the value was 0.89 nM; for B6, 0.7 nM; for B7, 0.13 nM.
Regarding B8, the half-maximal effective concentration (EC50) came out at 0.29 nM.
In turn, B9 returned a half-maximal effective concentration (EC50) of 1.45 nM.

Another experiment addresses T2, human DLL4 on the cell surface (human, UniProt Q9NR61 27-685).
T2 construct: whole, on cells; also called HEK293-hDLL4; hDLL4-293G
As to the kind of experiment: FACS on DLL4 cells.
The molecule B1 came in with an EC50 of 1.63 nM.
On the same count and under the same terms, in the case of B2 it was 3.34 nM.
Same read-out and setting: for B3 the value was 2.65 nM; for B4, 34.3 nM.
As for B5, the EC50 stood at 2.7 nM.
Still for that read-out and setting: for B6 the value was 2.02 nM.
Same read-out and setting: for B7 the value was 1.66 nM; for B8, 0.27 nM.
Still for that read-out and setting: in the case of B9 it was 4.46 nM.

The target of a further experiment is T3, human DLL4 extracellular domain (human, UniProt Q9NR61 27-529).
T3 construct: extracellular domain; coated on plates in the sVEGFR1 assay; also called huDLL4 ECD; Human DLL4 ECD
Put plainly: Biacore SPR.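 Note: surface plasmon resonance on a Biacore instrument, antibodies captured on immobilized anti-human Fc, purified recombinant DLL4 extracellular domain injected as analyte, binding followed over time.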 A general note: SPR reads the build-up and loss of mass on a sensor chip optically.
Experimental: (§1) Binding of DLL4 antibodies to a purified recombinant DLL4 extracellular domain is determined by surface plasmon resonance-based measurements with a Biacore® instrument (either a Biacore 2000, Biacore 3000, or Biacore T100, GE Healthcare, Piscataway, N.J. US) using running buffer HBS-EPB (10 mM HEPES [pH 7.4], 150 mM NaCl, 3 mM EDTA, 0.1 mg/ml BSA and 0.005% surfactant P20) at 25° C. For example, approximately 9000 RU of goat anti-human Fc specific polyclonal antibody (Thermo Fisher Scientific Inc., Rockford, Ill., US) diluted in 10 mM sodium acetate (pH 4.5) is directly immobilized across a CM5 research grade biosensor chip using a standard amine coupling kit according to manufacturer's instructions and procedures at 25 μg/ml. Unreacted moieties on the biosensor surface are blocked with ethanolamine. For kinetic analysis, rate equations derived from the 1:1 Langmuir binding model are fitted simultaneously to multiple antigen injections (using global fit analysis) with the use of Scrubber 2 (BioLogic Software). […] The equilibrium dissociation constant KD (M) of the reaction between antibodies and the target antigen is then calculated from the kinetic rate constants by the following formula: KD=Koff/Kₒₙ. Binding is recorded as a function of time and kinetic rate constants are calculated. In this assay, on-rates as fast as 10⁶ M⁻¹s⁻¹ and off-rates as slow as 10⁻⁶ s⁻¹ can be measured.
The molecule B10 displayed a Kd of 0.72 nM, an off-rate (koff) of 3.16e-05 s⁻¹ and a kon of 44000 M⁻¹ s⁻¹.
For B11 the same measures were 4.06 nM, 0.000406 s⁻¹ and 100000 M⁻¹ s⁻¹.
The like results for B12 were, in that order, 7.69 nM, 0.000274 s⁻¹ and 35700 M⁻¹ s⁻¹.
Take B13: binding was put at a Kd of 0.19 nM, the koff amounted to 9.5e-06 s⁻¹ and the kon turned out to be 50700 M⁻¹ s⁻¹.
For B1 the same measures were 0.58 nM, 3.31e-05 s⁻¹ and 56700 M⁻¹ s⁻¹.
The like results for B2 were, in that order, 0.02 nM, 3.1e-06 s⁻¹ and 151000 M⁻¹ s⁻¹.
The like results for B3 were, in that order, 0.05 nM, 1.16e-05 s⁻¹ and 218000 M⁻¹ s⁻¹.
Turning to B14, binding was put at a Kd of 14 nM, the koff was determined as 0.000363 s⁻¹ and the kon was found to be 25900 M⁻¹ s⁻¹.
For B4 the same measures were 8.46 nM, 0.000331 s⁻¹ and 39100 M⁻¹ s⁻¹.
The like results for B15 were, in that order, 6.92 nM, 7.59e-05 s⁻¹ and 11000 M⁻¹ s⁻¹.
Turning to B5, binding was characterised by a dissociation constant (Kd) of 0.04 nM, the koff is 6e-06 s⁻¹ and the association rate constant (kon) is 150000 M⁻¹ s⁻¹.
In turn, B6 came in with a Kd of 0.078 nM, a koff of 2.5e-06 s⁻¹ and a kon of 32600 M⁻¹ s⁻¹.
The molecule B7 yielded a Kd of 2.75 nM, a koff of 3.48e-05 s⁻¹ and a kon of 12700 M⁻¹ s⁻¹.
For B16 the same measures were 1.33 nM, 4.97e-05 s⁻¹ and 37400 M⁻¹ s⁻¹.
For B17, the affinity, expressed as Kd, was 1.18 nM; the koff was 1.84e-05 s⁻¹; the kon came out at 15700 M⁻¹ s⁻¹.
With B18, the Kd was determined as 9.14 nM, the koff amounted to 0.000365 s⁻¹ and the kon is 39900 M⁻¹ s⁻¹.
The like results for B9 were, in that order, 0.48 nM, 1.74e-05 s⁻¹ and 36300 M⁻¹ s⁻¹.

A further experiment concerns the target T4, mouse DLL4 extracellular domain (mouse, UniProt Q9JI71 27-532).
T4 construct: extracellular domain; also called muDLL4 ECD; Mouse DLL4 ECD
Put plainly: Biacore SPR.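 Note: surface plasmon resonance on a Biacore instrument, antibodies captured on immobilized anti-human Fc, purified recombinant DLL4 extracellular domain injected as analyte, binding followed over time.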
Experimental: as §1
In the case of B10, the binding result is reported as “no binding”.
For B11, the binding result is “no binding”.
On the same count and under the same terms, for B12 the value was “no binding”.
On to B13, for which the binding result is “no binding”.
As to B1, the Kd was 1.12 nM, the koff stood at 6.01e-05 s⁻¹ and the association rate constant (kon) was determined as 53800 M⁻¹ s⁻¹.
The molecule B2 yielded a Kd of 0.18 nM, a koff of 1.47e-05 s⁻¹ and a kon of 83500 M⁻¹ s⁻¹.
For B14 the same measures were 5.27 nM, 0.000136 s⁻¹ and 25700 M⁻¹ s⁻¹.
Molecule B4 came in with a dissociation constant Kd of 3.5 nM, an off-rate (koff) of 0.000133 s⁻¹ and a kon of 37800 M⁻¹ s⁻¹.
For B15 the same measures were 2.53 nM, 4.17e-05 s⁻¹ and 16500 M⁻¹ s⁻¹.
For B5 the same measures were 0.02 nM, 2e-06 s⁻¹ and 89000 M⁻¹ s⁻¹.
For B6 the same measures were 0.5 nM, 1.44e-05 s⁻¹ and 28900 M⁻¹ s⁻¹.
Molecule B7 came in with a Kd of 9.27 nM, a koff of 0.000171 s⁻¹ and a kon of 18400 M⁻¹ s⁻¹.
Molecule B16 yielded a Kd of 4.89 nM, a koff of 0.000212 s⁻¹ and an on-rate (kon) of 43400 M⁻¹ s⁻¹.
In the case of B17, the affinity, expressed as Kd, was 0.73 nM; the off-rate (koff) came out at 1.68e-05 s⁻¹; the kon stood at 23200 M⁻¹ s⁻¹.
The like results for B18 were, in that order, 3.49 nM, 0.000136 s⁻¹ and 38900 M⁻¹ s⁻¹.
In turn, B9 came in with a Kd of 0.5 nM, an off-rate (koff) of 1.39e-05 s⁻¹ and a kon of 27700 M⁻¹ s⁻¹.

The next experiment has as its target T1, mouse DLL4 on the cell surface. Put plainly: competition FACS, competitor huNotch-1.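 Note: stable cell lines displaying human or mouse DLL4 on their surface, Notch binding detected by flow cytometry via R-phycoerythrin streptavidin fluorescence.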
Experimental: (§2) Notch blocking assay: Briefly, stable cell lines overexpressing cell-surface DLL4 were harvested from tissue culture flasks and re-suspended in phosphate buffered saline (PBS) containing 1% bovine serum albumin and 1 mM CaCl₂ (FACS buffer). HEK293-hDLL4 or HEK293-mDLL4 cells were dispensed into 96-well plate (v-bottom) at 1.5×10⁵ cells/well in FACS buffer. […] After washing the cells two times with FACS buffer, 50 μL of R-phycoerythrin-conjugated streptavidin (1:150 dilution in FACS buffer) (Jackson ImmunoResearch, West Grove, Pa., US, catalog no. 016-110-084) were added. Following an incubation on ice (4° C., 60 minutes), cells were washed three times and resuspended in FACS buffer. Fluorescence was measured using a Becton Dickinson FACSCalibur-HTS (Becton Dickinson, San Jose. Calif.).
Regarding B1, the IC50 was found to be 0.3 nM.
Same read-out and setting: in the case of B2 it was 0.37 nM.
Consider B3, for which the IC50 was found to be 0.65 nM.
Still for that read-out and setting: in the case of B4 it was 2.63 nM; in that of B15, 1.3 nM; in that of B5, 0.34 nM.
The molecule B6 gave an IC50 of 0.99 nM.
Same read-out and setting: in the case of B7 it was 1.2 nM; in that of B8, 0.18 nM.
In turn, B9 registered an IC50 of 2.06 nM.

The next experiment has as its target T2, human DLL4 on the cell surface. Put plainly: competition FACS, competitor huNotch-1.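 Note: stable cell lines displaying human or mouse DLL4 on their surface, Notch binding detected by flow cytometry via R-phycoerythrin streptavidin fluorescence.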
Experimental: as §2
B1 registered an IC50 of 4.3 nM.
Still for that read-out and setting: in the case of B2 it was 4.44 nM.
Still for that read-out and setting: for B3 the value was 6.55 nM; for B4, 21.1 nM.
For the molecule B15, the IC50 was found to be 9.12 nM.
Same read-out and setting: in the case of B5 it was 3.76 nM; in that of B6, 5.03 nM; in that of B7, 7.76 nM.
On the same count and under the same terms, for B8 the value was 2.12 nM; for B9, 14.8 nM.
